# Results published in doi:10.1101/2023.01.27.525930.
# Target: Polyketide synthase 13 (Pks13) of Mycobacterium smegmatis (Mycobacterium smegmatis) (UniProt A0R617)
# Test: native gel or EMSA; blue native PAGE of the protein of both sizing-column peaks; purified in β-DDM
substance,measurement,value
Polyketide synthase 13 (Pks13) of Mycobacterium smegmatis (from UniProt A0R617 1-1816) (enzyme),stoichiometry N,2
